Assay results as given in patent US20210040187A1 (INSTITUT PASTEUR, published 2021).

Biological target: T1, acetylcholine receptor alpha 7 sub-unit (AchR alpha7) (UniProt P36544 23-502)
T1 construct: whole, on cells
Assay: flow cytometry on AchR alpha7-expressing HEK293 cells, 30 min at 4 C

T1 sequence (P36544 23-502): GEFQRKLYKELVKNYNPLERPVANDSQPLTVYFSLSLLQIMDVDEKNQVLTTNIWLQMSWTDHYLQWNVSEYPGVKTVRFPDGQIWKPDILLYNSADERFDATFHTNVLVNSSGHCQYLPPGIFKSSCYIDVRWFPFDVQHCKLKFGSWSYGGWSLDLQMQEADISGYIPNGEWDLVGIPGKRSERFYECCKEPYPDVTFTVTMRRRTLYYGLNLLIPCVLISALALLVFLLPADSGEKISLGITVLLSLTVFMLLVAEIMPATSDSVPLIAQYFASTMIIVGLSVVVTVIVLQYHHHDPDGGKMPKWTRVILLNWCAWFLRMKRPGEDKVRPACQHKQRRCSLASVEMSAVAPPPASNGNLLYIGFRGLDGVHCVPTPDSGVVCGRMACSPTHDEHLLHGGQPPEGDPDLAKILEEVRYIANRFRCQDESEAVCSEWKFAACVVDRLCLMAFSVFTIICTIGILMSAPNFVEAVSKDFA

B1: VHH2 (MA peptide, VHH A12, StrepTag, NV; lacking the RDP1 sequence) (VHH)
chain: MAEVQLQASGGGLAQPGGSLRLSVTVSGSIDVINNMAWYRQAPGNARELVATITSGFSTNYASSVKGRFTISRDNAKKAVYLQMNSLKPEDTADYYSKVHLIRLGAARAYDYWGQGTQVTVSGGGSAWSHPQFEKAAARRVNRSEPTQHNLRGTGREVSVTPQSGKIISSWEVHGQQTRL
binding result: no binding (tested: 20 pg)
